Measured values taken from the DeepSol protein solubility set.

Experiment: soluble on expression in E. coli; label from the status in PepcDB or PDB records

**Q.** For “MGSDKIHHHHHHMPTPHLDTALSGPILDLERCILNAMPSIEQWLRNEWQTHAAPFYCSVDLRNSGFKLAPVDTNLFPGGFNNLNREFMPLCVQAMMAAIDKICTGARSVLLIPESHTRNIFYLQNLAALHAIMRHAGIHVRIGTLLPEITAPTALDLPGGNKLTLEPIQRKGNRVVLEDFDPCVVLLNNDLSTGTPAVLQNLEQTVIPPLHAGWTSRRKSHHFTAYDNVSQQFASLIGIDPWLINPYFASCGKINFREKKGEDCVANTVDEILHQIREKYAEYGVRKDPFVIVKADAGTYGMGIMTVKDGAQVRTLSRKQRNKMAVVKEGLEVTDIMVQEGVYTFENVDDAVAEPVIYMIDRYVVGGFYRVHTERGVDENLNAPGMHFVPLAFEDTCLLPDREAQPGCSANRFYAYGVIARLALLAAAQELEKSEARIEAIMA”, which “soluble on expression in E. coli” value is on record?
**A.** not soluble

**Q.** With “MCLDQVMEGSATVHMAAPPDKIWTLIADVRNTGRFSPETFEAEWLDGATGPALGARFRGHVRRNGIGPVYWTVCEPGREFGFAVLLGDRPVNNWHYRLTPTADGTEVTESFRLPPSVLTTVYYRVFGGWLRQRRNIRDMTKTLQRIKDLVEAG” as the sequence, how does the “soluble on expression in E. coli” value read?
**A.** soluble

**Q.** Which “soluble on expression in E. coli” value does the source give for “MGSDKIHHHHHHVVLDTDLASIQESRNLVQKAKEAQLHLAHFNEQQIDKILASIVAAVEENAEGLARMACQETEYGIVEHKIAKNLFAARDVYESTKHIKTIGTISEDPDRKVIRYAAPMGVLVGITPRTNPTSTIIHNALCAIKGANAIVFSPHPFAVQCGCATASLINEAAVKAGAPDGVCSCLSMTSLQASHELMHHPDVAAIIATGGPGLVKSAYSAGKPAFGVGSGNVPVFIERSADIKQAVNDIMVSKTFDNGMICASEQAILADQPIKDEVIKELQNQGAYFLSPEEVQKVGRVVIHANGSMNNALVGQSPAVIAQRAGISIPADTALLIAPMEGYGKDYPLSHEKLTTVLGFYVVQDWKEACHLSIELLKLGGIGHSCAIHSQNEQVIREFLAKPVFRIIVNTPSALGGIGQTTGIMPSLTLGCGTWGGSSISENLGPQHLINIKHLTYGLKKVAFHKVPATQGNVSPLLPPTKATSWDIKSDDIDDVVKQVLQQLKIG” here?
**A.** not soluble

**Q.** For “MNVEKLKKMKGKEKIVMVTAYDAPSARIARDAGIDVILVGDSLGNNVLGYENTIPVTMEEMLIHVAAVKRGAPDAFIVADMPFLSYQTSVEKAVENAGKFLKVGANAVKIEGGEEFGELVQKLVESGIPVMGHIGLTPQFVNRFGGYRVQGKTEKNREYLLRSARELEKRGAFAIVLELVVEEVAKEITESVSIPTIGIGSGRFCDGQVLVWHDLLGLNPDFAPRFSKKYANLYEVILKALQEFRREVKKGLFPTEEHSFTDKSKGGVSS”, which “soluble on expression in E. coli” value is on record?
**A.** soluble

**Q.** With “MEFYMKAFNKLFSLVVASVLVFSLAGCGDKEESKKFSANLNGTEIAITYVYKGDKVLKQSSETKIQFASIGATTKEDAAKTLEPLSAKYKNIAGVEEKLTYTDTYAQENVTIDMEKVDFKALQGISGINVSAEDAKKGITMAQMELVMKAAGFKEVK” as the sequence, how does the “soluble on expression in E. coli” value read?
**A.** not soluble

**Q.** With “MQNQYFTVQENYKERFYQIPKVFFTSENYKNLTNDMKIAYAILRDRLNLSIKNSWVDEDGNIYFVYSNEKLMEILNCKKEKLTKIKKGLENDGLLIQKRRGLNKPNILYLMKPIVTERDIYKIEKEENDVEPYGEKEVRKSNVQKFENRTSRSSKIERPEVRKSNTNDTDFNDIDFNDTENNDMNDLNDIKYKNEISNHSNHSNQFTHNFDDKEMLLQEFPEQLTNYLLKYDYRDLEIIKAVILKAKKSFNSRHEDMHYMLEDIEDEILTSLKRLKKAIHDRGVKGQKETIKSMQAYLMQTILTELEETHALYMRRKNMKQYNIFNQ” as the sequence, how does the “soluble on expression in E. coli” value read?
**A.** soluble

**Q.** With “SLNTGEPAPVLSSPPPADVSTFLAFPSPEKLLRLGPKSSVLIAQQTDTSDPEKVVSAFLKVSSVFKDEATVRMAVQDAVDALMQKAFNSSSFNSNTFLTRLLVHMGLLKSEDKVKAIANLYGPLMALNHMVQQDYFPKALAPLLLAFVTKPNSALESSSFARHSLLQTLYKV” as the sequence, how does the “soluble on expression in E. coli” value read?
**A.** soluble

**Q.** With “ALAQKRDNVLFQAATDEQPAVIKTLEKLVNIETGTGDAEGIAAAGNFLEAELKNLGFTVTRSKSAGLVVGDNIVGKIKGRGGKNLLLMSHMDTVYLKGILAKAPFRVEGDKAYGPGIADDKGGNAVILHTLKLLKEYGVRDYGTITVLFNTDEEKGSFGSRDLIQEEAKLADYVLSFEPTSAGDEKLSLGTSGIAYVQVNITGKASHAGAAPELGVNALVEASDLVLRTMNIDDKAKNLRFNWTIAKAGNVSNIIPASATLNADVRYARNEDFDAAMKTLEERAQQKKLPEADVKVIVTRGRPAFNAGEGGKKLVDKAVAYYKEAGGTLGVEERTGGGTDAAYAALSGKPVIESLGLPGFGYHSDKAEYVDISAIPRRLYMAARLIMDLGAGK” as the sequence, how does the “soluble on expression in E. coli” value read?
**A.** soluble

**Q.** Which “soluble on expression in E. coli” value does the source give for “MHFRMKVLENSSKHNTPKKQKTFQHYLPAGDRCYSCIHCRANLAAHAELISKSFQGSQGKAYLFNAVVNVGCGPAEERVLLTGLHAVADIYCEICKTTLGWKYEHAFESSQKYKEGKFIIELAHMVKDNGWDEQNDS” here?
**A.** not soluble

**Q.** For “MGHHHHHHSHMSSMQRRAFVALGLMAMLAACSPAKKEDAAAGQTPIKLATDWRAQAELGGYYQALATGEYKKRGLDVTLIQGGPAVNVPQLLATGAVDVGVGSNSFIIMNLAKENAPVKAVAAFMQKDPQVLIAHPDQGINGIADMKGRPILLSDASVTAFWVWLKAKYGFTDDQVRKYNYSSAPFLADKRVVQQGYATSEPYLIEKEGKIKPAVFLLADSGYPAYASFALVPDSLIAKNPAAVQAFVEATAAGWTSYLYGDPKPGDAAILKDNPEMTQDVLDQAREKMRSYGIVSANGGRGDIGQMTDARWAEFFKVASEQGVYPADMDYKKAYTLQFLPKGP”, which “soluble on expression in E. coli” value is on record?
**A.** not soluble

**Q.** For “MADETDITHTKWLAYSKSLKIDLTYPGINGIGIIYNIQADQLDDYIEKQRVLRPNYAIHPSHNESEYWPITYVEPAAPNKKAIGLDMAFETNRYSSIKKARDTGVAQLTGPITLVQDAKKTPGFLFYTPFYKNGTKPESTEARRDAIDGVTYAPFIMKNLMQGTLAEKNRHVSIQIRDAGDLLFDDHDDESVLDADANPLFTKEQDISLYGRTWSFTIQSNLDFRDESAANQLEHHHHHH”, which “soluble on expression in E. coli” value is on record?
**A.** soluble

**Q.** Which “soluble on expression in E. coli” value does the source give for “MSLKDEYTTSFGIRTIEVIPNKGFFLNGKRTSFKGVCNHHDLGPLGGAVNDAAIRRQIRILKDMGCNAIRTSHNMPAPELIRACDEMGMMVMAESFDEWKAMKVKNGYRHVFDEWAVKDLTNLLRHYRNNPSVVMWCIGNEVPEQWDGNKGPKMSYFLQELCHREDPTRPVTQGMDAPDAVVNNNMAAVMDIAGFNYRPHKYQENYKKLPQQIVLGSETASTVSSRGVYKFPVTRQWMKKYDDHQSSSYDVESCSWSNLPEDDFIQHEDLPYCIGEFVWTGFDYLGEPTPYYTDWPSHSSLFGIIDLAGLPKDRYYLYRSHWNKEQETLHILPHWNWEGREGEITPVFVYTNYPSAELFINGKSQGKRTKDLSVTIDNSADSVSIMNLKRQSRYRLMWMDTKYEPGTVKVVAYDADGKAVAEKELHTAGKPDHIELVADRNVIKADGKDLSFVTVRVVDRDGNLCPDASHEISFKVKGEGSYRAGANGNAASLESFQHPKMKVFSGMMTAIVSSTEQPGKITLEATGKGLKKGALIIESCQEAKEGHHHHHH” here?
**A.** not soluble

**Q.** Which “soluble on expression in E. coli” value does the source give for “MGSDKIHHHHHHMMSAVADIQECRDFLAAHPQVKFVEVFFTSMTGVPRGKRLRVHELEAIYEYGRFLPGSVLVVDTNGADCEDTGLVWEDGDADRRARPVPGTLTLAPWLGPDVAQVMLSLYELDGTPNDLDPRHVLQRVLDRYAADGLTPVAACELEYYLVDLQRGPNGELLPAKSLQTGLRPTGIQVYGLPELEAHAPFLRELWDVADTLGVPLEGAISEFAPAQVELTLKHKPDALRAADDAVLYKRAAKGVALRHGMEATFMAKPWSDRAGNGFHVHLSVNDAAGNNLCASEDIEGSDLLKHAIGGMKVLLGEGMAILAPNANSYRRFKANSYAPVAPTWGVNNRTVSLRVPAGPPKTRHVEHRVAGADGNPYLVLAVLLASAHHGITNKIDPGPAVIGDGYAAAAKENIRLPNNWFAAVDLFEQSSVLRDYLGDRFVDMFVSVKRTEQARFFEVVTELDFDWYLRNA” here?
**A.** not soluble

**Q.** For “MQLPVMPPVSPMLAKSVTAIPPDASYEPKWDGFRSICFRDGDQVELGSRNERPMTRYFPELVAAIRAELPHRCVIDGEIIIATDHGLDFEALQQRIHPAESRVRMLADRTPASFIAFDLLALGDDDYTGRPFSERRAALVDAVTGSGADADLSIHVTPATTDMATAQRWFSEFEGAGLDGVIAKPPHITYQPDKRVMFKIKHLRTADCVVAGYRVHKSGSDAIGSLLLGLYQEDGQLASVGVIGAFPMAERRRLLTELQPLVTSFDDHPWNWAAHVAGQRTPRKNEFSRWNVGKDLSFVPLRPERVVEVRYDRMEGARFRHTAQFNRWRPDRDPRSCSYAQLERPLTVSLSDIVPGLR”, which “soluble on expression in E. coli” value is on record?
**A.** not soluble

**Q.** Which “soluble on expression in E. coli” value does the source give for “MSLSPLSKLDKIAVSGNKQLTENEVRKESGLEIGEFVIGISNGKTEDTLKKNTLIKDATVSKEGINDVQINITEFKTIGYQQQDGKYYDVLESGIMLTDQPRQFPIGNDLLFQNFKNGKTLEKMVAQINKLPKDVVSSISEVIYSPTKTDKNHIKLYMNDGNQVSADISTFAEKMQHYPAIVAQLAKGQKGVIDIEVGSYFQSYYQQNAEKKAAEEAAKEKKETNEGHHHHHH” here?
**A.** soluble

**Q.** For “MHKEIAKELLLLAGGKNNIISISHCTTRLRFDVKDETKIDIHAIENLQGVQGTFFRYGLFQIIFGAGVVNKIYKEVVHVWETAPSEEPVHQKKASRKLNPAAAFAKTLSDI”, which “soluble on expression in E. coli” value is on record?
**A.** not soluble

**Q.** Which “soluble on expression in E. coli” value does the source give for “TTTVGLVCKDGVVMATEKRATMGNFIASKAAKKIYQIADRMAMTTAGSVGDAQFLARIIKIEANLYEIRRERKPTVRAIATLTSNLLNSYRYFPYLVQLLIGGIDSEGKSIYSIDPIGGAIEEKDIVATGSGSLTAYGVLEDRFTPEIGVDEAVELAVRAIYSAMKRDSASGDGIDVVKITEDEFYQYSPEEVEQILAKFRK” here?
**A.** soluble

**Q.** For “SSSGYSSLEEDEDFFFTARTSFFRRAPPGKSRSGQPDVEKEKETHNYLSKEEIKEKVHKYNSAVTDKLKMTLNSNGIYTGFIKVQMELCKPAQPSPEPSSGGCMNTLHISSTNTVGEVIEALLRKFLVTESPTKFALYKRCHREDQVYACKLSDREHPLYLRLVAGPRTDTLSFVLREHEIGEWEAFSLPELQNFLRILDKEEDEQLQSLKRRYTAYRQKLEEALGEVWKPG”, which “soluble on expression in E. coli” value is on record?
**A.** soluble

**Q.** Which “soluble on expression in E. coli” value does the source give for “MGSDKIHHHHHHMLKIKTSNLRPGIKLGKDIYSYDSQLLLTSGSTITQEHLDSFARRNIEEVFILDESPRMKPERDFEDVYQDALEVVNSFMVGAMLGSPLDFQEIDKTVDLLREQAFDAIDLFRQMRLMKNKGEYLFTHSINVSLLCILIGRWLKCDRNTIRELGIAGLLHDLGKVFIENDILNKPGKLTDQEYEKIKKHTVLGYNFICQNPDMNLEVANAALMHHERVDGSGYPSGLKGQLNFYAAVVAVADVYDAITSAHSYADKRSPYSAAEILWQESFGKLDARITKVFYDKITNFYVGNKVLLSNKKEGIVIYVDPFQPTRPIVMVEDEFYNLALDRSITIRDIID” here?
**A.** not soluble

**Q.** With “MAARLAASRIVHAGRGISQPTPFGKRMDRLSNRVWGEVVMPTDTKSLKVVRVMSAEPYETKEQLSPKYYPNLPMFHYLTKMLRFHGLFFDDHVVFRDVQDNLKIIRGKVVRPPIGQGKRAQLRGKK” as the sequence, how does the “soluble on expression in E. coli” value read?
**A.** not soluble

**Q.** Which “soluble on expression in E. coli” value does the source give for “MKSIIIAAPHSGSGKTTITVGIMECFRRRGLTVAPFKVGPDFIDPGYHRLVTGLPSANLDGWICPPEFVRASFAHHALNADMAIIEGVMGLFDGFGGIADEGSTAQVARLTGAPVILVVDARGLARSAAAILKGFAEFDPSVRVAGVIFNNVGSDSHERILREAVGQSLPELKVFGCIPRDDGLHIPARHLGLLTAEEHPLSGEFLDHLVEVIRDRVDLGLLWGAANPLGAPVPRAEPIPCQTLGGSVRLAVARDEAFCFVYEDNLCLLRRAGAEIVTFSPLRDERLPEDVAGVYLPGGYPEVFADALAANTGMKESLARAVNEGMPVYAECGGFIYLTRGVTDSAGEPESLHEFVGIFPVTTRMLPRRKALGYREVELAADTIIGPAGTLARGHEFHYSEMEEMPADVERAYRVRRGPVDLGMEGYRYRNCLASYVHLHFGSNPELAAAFVARCRSFVTRSRVLEHHHHHH” here?
**A.** not soluble
